Measured values: publication PMC9926112

Target: GST-fused N-terminal fragment of human β-spectrin (GST-hNβSp) (human) (UniProt P11277)
Experiment: SPR; Biacore X100; GST-hNβSp (500 nM) captured on a CM5 chip by anti-GST antibody; h4.1R recombinants (GST cleaved) 150-1000 nM as analyte; PBS, 25 °C; regeneration in 10 mM Glycine-Cl pH 2.1

Chain of UniProt P11277 (P11277 1-527): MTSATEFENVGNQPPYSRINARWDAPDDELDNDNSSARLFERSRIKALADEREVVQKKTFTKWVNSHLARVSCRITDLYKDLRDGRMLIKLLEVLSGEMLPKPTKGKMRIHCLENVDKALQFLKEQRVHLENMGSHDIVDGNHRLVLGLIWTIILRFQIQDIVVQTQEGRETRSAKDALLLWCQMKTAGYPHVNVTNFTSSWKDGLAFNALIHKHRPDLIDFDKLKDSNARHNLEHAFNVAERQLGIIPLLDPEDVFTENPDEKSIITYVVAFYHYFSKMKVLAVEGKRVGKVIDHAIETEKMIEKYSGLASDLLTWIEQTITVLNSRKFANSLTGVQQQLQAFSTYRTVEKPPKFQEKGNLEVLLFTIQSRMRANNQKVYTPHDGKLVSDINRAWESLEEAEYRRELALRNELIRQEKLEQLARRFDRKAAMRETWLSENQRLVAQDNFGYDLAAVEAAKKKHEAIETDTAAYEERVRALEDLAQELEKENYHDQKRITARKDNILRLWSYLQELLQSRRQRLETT

| Kd [nM] | kon [M⁻¹ s⁻¹] | Substance |
| --- | --- | --- |
| 633 | 5040 | human protein 4.1R, wild type (h4.1R WT), cleaved from GST (natural protein) |
| 121 | 55100 | human 4.1R with the PE and e14 sequences of alpaca 4.1R (h4.1R[PE14]), cleaved from GST |
